Assay results taken from the nanobody polyreactivity screen of Harvey et al. (2022).

Assay: yeast display, Sf9 membrane polyspecificity reagent, FACS + sequencing; frameworks hold sequencing errors
Summary of the method: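 Galactose induction of a Saccharomyces cerevisiae BJ5465 synthetic nanobody display library ran 36–48 hours. The cells were then stained for 1 hour at 4 °C with 10% biotinylated, detergent-solubilized Sf9 membrane reagent, pulled down on streptavidin microbeads and FACS-sorted into low and high (top ~1%) gates on expression and reagent-binding fluorescence. Labels for polyreactivity follow the gate of origin.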

Sequence	polyreactivity (PSR sort gate)
QVQIVESGGGLVQAGGSLRVSCAASGRTFSWYAMGWYRQARGKEWEIVAAIRWSGSSTYYADSVKGRFTISRDNAKNTVYLQMNSLKPEDTAVYYCAVAAGIPQRRYYYWGQGTQVTVSS	high polyreactivity
QVQLVQSGGGLFQAGGSLRLSCAASGRTFEPNAMGWYRQAPGKERQLVAAITNGGSTSYADSVKGRFTISRDNAKNSVYLQMNSLKPEDTAVYYFAGDLGRNLLHTYYYWGQGTQVTVSS	low polyreactivity
QVQLVESGGGLVQAGGSLRLSCAASGSIFWVYAMGWYRQAPGKERELVAAISSGGSTNYADSVKGRFTISRDNAKNTVYLQMNSLKPEDTAVYYCAAVIRTVRERYGFWGQGTQVTVSS	high polyreactivity
QVQLVESGGGLVQAGGSLRLSCAASGSTFAGNGMGWYRQAPGKERELVAGIDVTGGSSYYADSVKGRFTISRDNAKNTVYLQMNSLKPEDTAVYYCNTVWYRGGIDYYWGQGTQVTVSS	low polyreactivity
QVQLEDSGGGLVQAGGSLRLSCAASGRTFTYYAMGWYRQAPGKERELVATISYSGGSTYYADSVKGRFTISRDNAKNTVYLQMNSLKPEDTAVYYCATSGSGPWWKLYYSGQGTQVTVSS	low polyreactivity
QVQLVESGGGLVQAGGSLRLSCAASGSTFYPTYAMGWYRQAPGKERELVATITGSGGSTYYADSVKGRFTSSRDNAKNTVYLQMNSLKPEDTAVYYCAADRWYSRYTRYGYWGQGTQVTVSS	low polyreactivity
QVQLVESGGGLVQAGGSLRLSCAASGFIFGDYAMGWYRQAPGKERELVADINWTGGSTYYADSVKGRFTISRDNAKNTVYLQMNSLKPEDTAVYYCAKDDYAFLITWVDYWGQGTQVTVSS	low polyreactivity
QVQLVESGGGLVQAGGSLRLSCAASGRTLVLNMGWYRQAPGKQRELVATINSGGSTYYADSVKGRFTISRANAKNTVYLQMNSLKPEDSAVYYCAVLSSDGKFDYWGQGSQVTVSS	low polyreactivity
QVQRVESGGGLVQAGGSLRLSCAASGSTFLVNGMGWNRPAPGKERELVASITRDSSTYADSVKGRFTISRDNAKNTVYLQMNSLKPEDTAVYYCAATSRRRWSQQQGYGYYYWGQGTQVTVSS	high polyreactivity
QVQLVESGGGLVQAGGSLRISCAASGFTFPIYAMGWYRKAPGKEREFVAAITASGDNTYYADSVKGRFTISRDNAKNTVYLQMNSLKPEDSAVYYCAADWFVDWWEYDYWGQGTQVTVSS	low polyreactivity
QVQLVESGGGLVQAGGSLRLSCAASGRTFAPNTMGWYRQAPGKERELVATISSGGSTNYADSVKGRFTISRDNAKNTVYLQMNSLKPEDTAVYYCAARYRIVYRSHWGFTSYDYWGQGTQVTVSS	low polyreactivity
QVQLVESGGGLVQAGGSLRLSCAASGNIFDYYAMGWYRQAPGKERELVAAISTGTSTYADSVKGRFTISRDNAKNTVYLQMNSLKPQDTAVYYCAADVGIRPLNYNPYNYWGQGTQVTVSS	low polyreactivity
QVQLVESGGGLVQAGGSLRLSCAASGSIFIINAMGWYIQAPGKERELVAAINNGVNTYYADSVKGRFTISRDNAKNTVYLQMNSLKPEDTAVYYCAADYGDPRVNEYDYWGQGTQVTVSS	low polyreactivity
QVQLVESGGGLVQAGGSLRLSCAASGNTFAQNTMGWYRQAPGKEREFVAGITFSGTGTYYADSVKGRFTISRDNAKNTVYLQMNSLKPEDTAVYYCAADTPTPGLFYWFYPHRGYWGQGTQVTVSS	low polyreactivity
QVQLVESGGGLVQAGGSLRLSCAASGFNFPRYVMGWYRQAPGKERELVAAINSDISTNYADSVKGRFTISRDNANNSVYLQMTSLKPEDTAVFYCADERWDDPWEFDSWGQCTQVTVSS	low polyreactivity
QVQLVESGGGLVQAGGSLRLSCAASGSIFSFNAMGWYRQAPGKERELVAAISYSGGSTYADSVKGRFTISRDNAKNTVYLHMNSLKPEDTAVYYCAADGLDYSSGGDGYWGQGTQVTVSS	low polyreactivity
QVQLQESGGGLVQAVGSLRLSCAASGNISDYYDMGWYRQAPGKERKFVAGIDFGAITNYADSVKGRFTISRDNAKNTEYLQMSSLKPEDTAVYYCAAGVYDWYAYDYWGQGTQVTVSS	high polyreactivity
QVQLVESGGGLVQAGGSLRLSCAASGSIFIQYAMGWYRQAPGKERELVAAINSSGGRTYYADSVKGRFTISRDNAKNTVYLQMNSLKPEDTAVYYCAADHGSSFDWGQGTQVTVSS	low polyreactivity
QVQLVESGGGLVQAGGSLRLSCAASGSIFVYNAMGWYRQAPGKERELVASITWSGGRTYYADSVKGRFTISRDNAKNTVYLQMNSLKPEDTAVYYCAADSPRGYDYWGQGTQVTVSS	high polyreactivity
QVQLVESGGGLVQAGGSLRLSCAASGIIFGIYDMGWYRQAPGKESELVAAIRRSGGSTYYADSVKGRFTISRDNAKNTVYLQMNSLKPEDTAVYYCAATRHSRVRGGDYWGQGTQVTVSS	low polyreactivity
QVQLVESGGGLVQAGGSLRLSCAASGRIFQGYAMGWYRQAPGKERELVASIRTGGTTNYADSVKGRFTISRDNAKNTVYLQMNRLKPEDTAVYYCNRGYYSYYGGYYYWGQGTQVTVSS	high polyreactivity
QVQLVESGGGLVQAGGSLRLSCAASGFTFCSNAMGWYRQAPGKERELVAAITWSGGRTYYADSVKGRFTISRDNAKNTVYLQMNSLKPEDTAVYYCNAYRNWWWSQYDYWGQGTQVTVSS	high polyreactivity

Sequence	polyreactivity (PSR sort gate)
QVQLVESGGGLVQAGGSLRLSCAASGRIFHLYAMGWYRQAPGKERELVAAITFSGGSTYYADSVKGRFTISRDNAKNTVYLQMNSLKPEDTAVYYCAKRSFYLFSSRLPFKYDYGGQGTQVTVSS	low polyreactivity
QVQLVESGGGLVQAGGRLRLSCAASGRTFRPYAMGWYRQAPGKERELVAAITSGGSTYYADSVKGRFTISRDNAKNTVYFQMNSLKPEDTAVYYCNAKYYYQPPYDYWGQGTQVTVSS	low polyreactivity
QVQHVETGGGLVQAGGSLRLSCAASGFLFYFNDKGWYRQAPGKERELVASITSGASTNYADSVKGRFTISRDNAKNTVYLQMNSLKPEDTAVYYCAAAYFWLYPYVEYDYWGQGTQVTVSS	low polyreactivity
QVQLEESGGGLVQAGGSLRLSCAASGGNFPVNAIGWYRQAPGKERELVATITYDGGNTYYADSVKGRFTISRDNAKNTVYLQMNSLKPEDTAVYYCAARTPQRSEWTKYGYWGQGTLVTVSS	low polyreactivity
QLQLVESGGGLVQAGGSLRLSCAASGSIFVTYAMGWYSQAPGKEMELVAAINYSGGSTYYADSVTGRFTISRDNAKNTVYLQMNSLKPEATAVYYCAAAVAVFSFDYPHYYEYEYWGQGTQVTVSS	low polyreactivity
QVQLVESGGGLVQAGGSLRLSCASSGRIFDQYAMGWYRQAPGKERELVAAISSDDGSTYYADSVKGRFTISRDNAKNTVYLQMNSLKPEDTAVYYCAADAWRYVDYDYWGQGTQVTVSS	low polyreactivity
QVQLVESGGGLVQAGGSLRLSCAASGSTFWPYAMGWYRQAPGKERELVAAIRVIGGSKYYADSVKGRFTISRDNAKNTVYLQMNSLKPEDTAVYYCNAYRPGGARFYARYRYDYWGQGTQVTVSS	low polyreactivity
QDQLVESAGGLVQAGGSLRLSCAASGRIFKSYAMGWYRQAPGKERELVASTSYTGGSTYYADSVKGRFTISRDNAKNTVYIQRNSLKPDETAVYYCAPKRVRSAGSYGYWGQGTQVTVSS	low polyreactivity
QVQLVESGGGLVQAGGSLRLSCAASGRTFVGYAMGWYRQAPGKERELVAAISTSGGRTYYADSVKGRFTISRDNEKYTVYLQMNSLKPEDTAVYYCAAGFRASIGYVTEYYWGQGTQVTVTS	high polyreactivity
QVQLEESGGRLVQAGGSLRLSCAASGRTFDGNTMGWYRQAPGKERELVAAITYSGTSTYYADSVKGRFTISRDNAKNTVDVQMNSLKPEDTAVYYCNKPRYYSTYRRYYWGQGTQVTVSS	high polyreactivity
LVQLVESGGGLVQAGGSLRLSCAASGFIFAIYDMGWYRQAPGKERELVAAITSSSSTYADSVKGRFTISRDNAKNTVYLQMNSLKPEDTAVYYCAADTYSYRYSNDYWGQGTQVTVSS	low polyreactivity
QVQLVESGGGLVQAGGSLRLSCAASGSIFRKNAMGWSRPAPGKERELVAVSTSSGASTYYADSVKGRFTISRDNAKNTVYVQMNSLKPEETAVYYCNAPSFYTKKMYSWGQGTQVTVSS	high polyreactivity
QVQLVESGGGLVQAGGSLRLSCAASGRIFHGYAMGWYRQAPGKERELVATIRSGGGTYYADSVKGRFTISRDNAKNSVYLQINSLKPDDTAVYYCNAQSSYSYFSGYDYWGQGSQVTVSS	low polyreactivity
QVQLVESGGGLVQAGGSLRLSCAASGSTFKKNAMGWYRQAPGKERELVAAISGIGTRTSYADSVKGRFTISRDNAKNTVYLQMNSLKPEDTAVYYCAARYYGFPSTLKYDYWGQGTQVTVSS	high polyreactivity
QVQLVESGGGLVQAGGSLRLSCAAYGIIFAYNAMGWYRQAPGKERELVATITDSGGSTSYADSEKGRFTISRDNAKNTVYLQMNSLKPEDTAVYYCAVLPVYWYWRNYVYLSGYDYWGQGTQVTVSS	low polyreactivity
QVQLVESGGGLVQAGGSLRLSCAASGITFGNYAMGWYRQAPGKDRELVAAITGSGGRTYYADSVKGRFTISRDNAKNTVYLQMNSLKPEDTAVYYCNRRQYGRKKQYDYWGQGTQVTVSS	low polyreactivity
QVQLVESGGGLVQAGGSLRLSCAASGSIFLAYAMGWYRQAPGKEREFVAAISFSDGSTYYADSVKGRFTISRDNAKNTVYFQMNSLKPEDTAVYYCNKGASPDDYDYWGQGTQVTVSS	low polyreactivity
QVQLVESGGGLVQAGGSLRLSCAASGFTFDTYAMGWYRQAPGKERELVAAISWSGGSTYYADSVKGRFTISRDNAKNTVYLQMNSLKPEDTAVYYCAAETPVDWWSTSYNYWGQGTQVTVSS	high polyreactivity
QVQLVETGACLVQAGGSLRLSCAASGLTFFGYTMGRYRQAHGKEREFVADITWSGGSTYYADSVKGRFTISRDNAKNTVYLQMNSLKPEDTAVYYCAVAPPNWDPFVDDTYLMDYWGQGTQVTVSS	low polyreactivity
QVQLVESGGGLDQAGGSLRLSCAASGSTFDGYAMGWYRRAPGKERELVAAITSSDGSTYYADSVKGRFTISRDNAKHTVYLQMYSLKPEDTAVYYCAAAPDWKDSLPPDMDYWGQGTQVSVSS	low polyreactivity
QVQLVESGGGLVQAGGSLRLICAASGSTFVEYAMGWYRQAPGKERELVATISYRGTRTYYADSVKGRFTISRDNAKNTVYLQMNSLKPEDTAVYYCAARSWFRTVEYDYWGKGTQVTVSS	high polyreactivity
